This note sets out measurements from publication PMC4698733 (2016).

B1: MEIG1 wild type, two-hybrid fusion from MEIG1/pGBKT7 [mouse] / Parkin co-regulated gene protein (PACRG), two-hybrid fusion from PACRG/pGADT7 [mouse] (parent complex)
chain 1: MATSDVKPKSISRAKKWSEEIENLYRFQQAGYRDEIEYKQVKQVAMVDRWPETGYVKKLQRRDNTFFYYNKERECEDKEVHKVKVYVY
chain 2: not shown

The variants in the first test derive from B1. The test can be described thus: yeast two-hybrid, α-galactosidase activity; Yeast strain AH109 co-transformed with PACRG/pGADT7 and MEIG1/pGBKT7 plasmids; parent: 65; read off a plot.
Regarding chain 1 K9E, the response was about 72. On the same count and under the same terms, in the case of chain 1 I36A it was about 67; in that of chain 1 Y25A, about 58.

With chain 1 E20R, the response was about 72.

With chain 1 V87A, the response was about 72.

For chain 1 R62E, the response is about 67.

On to chain 1 Y68A, for which the response is about 5. As to chain 1 K57E, the response was about 22. Same read-out and setting: to chain 1 R13E belongs about 81. Same read-out and setting: in the case of chain 1 H81A it was about 85; in that of chain 1 W50A, about 10. Still for that read-out and setting: to chain 1 F66A belongs about 15.

Variants of B1 are the subject of a further test. The test can be described thus: yeast two-hybrid, α-galactosidase activity; Yeast strain AH109 co-transformed with PACRG/pGADT7 and MEIG1/pGBKT7 plasmids; parent: 64; read off a plot.
For chain 1 W50A, chain 1 Y68A, the response was about 2.2. Same read-out and setting: in the case of chain 1 Y68A it was about 3.3; in that of chain 1 W50A, about 12.
